Laboratory results: article PMC4490372, “Architecture of TFIIIC and its role in RNA polymerase III pre-initiation complex assembly” (Nature Communications, 2015)

Assays:
Experiment in all cases: pull-down; 15 μg GST-tagged τ131 on Glutathione Sepharose 4B; 300 nM τ138 or Bdp1, or 1 μM Brf1–TBP; 50 mM Tris pH 7.5, 150 mM NaCl, 2 mM DTT, 0.1% Tween20; 4 °C, 4 h
Conditions in all cases: both partners purified
[1] = molecular target: T1, GST-tagged τ131 (1–580) D468K (S. cerevisiae, UniProt P33339 1-580, D468K)
T1 construct: τ131 (Tfc4) of S. cerevisiae TFIIIC, residues 1-580, point mutant; also called D468K mutant of τ131 (1–580); source: E. coli BL21 (DE3) Gold, purified (GST column, S200 SEC)
T1 sequence (looked up): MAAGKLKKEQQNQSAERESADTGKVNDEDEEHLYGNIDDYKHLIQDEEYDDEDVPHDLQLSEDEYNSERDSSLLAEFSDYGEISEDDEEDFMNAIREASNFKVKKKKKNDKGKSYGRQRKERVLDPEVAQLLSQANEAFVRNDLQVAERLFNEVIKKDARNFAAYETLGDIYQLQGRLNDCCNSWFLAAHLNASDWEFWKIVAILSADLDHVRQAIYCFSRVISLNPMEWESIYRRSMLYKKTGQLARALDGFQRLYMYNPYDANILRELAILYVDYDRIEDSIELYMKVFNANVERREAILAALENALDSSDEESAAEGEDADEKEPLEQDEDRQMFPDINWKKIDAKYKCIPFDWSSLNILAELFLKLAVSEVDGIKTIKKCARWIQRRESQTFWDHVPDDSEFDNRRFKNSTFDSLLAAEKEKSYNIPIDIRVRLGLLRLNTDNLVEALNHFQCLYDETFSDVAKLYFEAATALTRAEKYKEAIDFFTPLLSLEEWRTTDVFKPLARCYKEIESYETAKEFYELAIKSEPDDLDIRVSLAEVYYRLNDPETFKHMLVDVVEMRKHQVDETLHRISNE

[2] = molecular target: T2, GST-tagged τ131 (1–580), wild type (S. cerevisiae, UniProt P33339 1-580)
T2 construct: τ131 (Tfc4) of S. cerevisiae TFIIIC, residues 1-580 (extended N terminus and TPR array); also called GST-τ131 (1–580); longer τ131 protein; source: E. coli BL21 (DE3) Gold, purified (GST column, S200 SEC)
T2 sequence (looked up): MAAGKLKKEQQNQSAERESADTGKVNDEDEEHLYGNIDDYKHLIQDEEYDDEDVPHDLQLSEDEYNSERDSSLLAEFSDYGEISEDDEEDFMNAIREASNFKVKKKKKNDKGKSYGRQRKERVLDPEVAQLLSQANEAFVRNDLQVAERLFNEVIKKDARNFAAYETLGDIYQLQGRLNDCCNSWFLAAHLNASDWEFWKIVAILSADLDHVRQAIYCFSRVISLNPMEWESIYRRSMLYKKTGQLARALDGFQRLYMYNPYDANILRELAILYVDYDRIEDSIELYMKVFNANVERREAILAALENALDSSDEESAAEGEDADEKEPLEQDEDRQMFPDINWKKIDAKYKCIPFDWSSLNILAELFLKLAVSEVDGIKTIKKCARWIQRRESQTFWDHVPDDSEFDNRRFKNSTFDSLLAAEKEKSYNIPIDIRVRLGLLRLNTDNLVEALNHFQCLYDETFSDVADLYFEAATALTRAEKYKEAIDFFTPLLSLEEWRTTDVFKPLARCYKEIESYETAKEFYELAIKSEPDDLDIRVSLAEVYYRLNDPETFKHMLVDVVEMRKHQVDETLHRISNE

[3] = molecular target: T3, GST-tagged τ131 (1–580) L469K (S. cerevisiae, UniProt P33339 1-580, L469K)
T3 construct: τ131 (Tfc4) of S. cerevisiae TFIIIC, residues 1-580, point mutant; also called L469K mutant of τ131 (1–580); source: E. coli BL21 (DE3) Gold, purified (GST column, S200 SEC)
T3 sequence (looked up): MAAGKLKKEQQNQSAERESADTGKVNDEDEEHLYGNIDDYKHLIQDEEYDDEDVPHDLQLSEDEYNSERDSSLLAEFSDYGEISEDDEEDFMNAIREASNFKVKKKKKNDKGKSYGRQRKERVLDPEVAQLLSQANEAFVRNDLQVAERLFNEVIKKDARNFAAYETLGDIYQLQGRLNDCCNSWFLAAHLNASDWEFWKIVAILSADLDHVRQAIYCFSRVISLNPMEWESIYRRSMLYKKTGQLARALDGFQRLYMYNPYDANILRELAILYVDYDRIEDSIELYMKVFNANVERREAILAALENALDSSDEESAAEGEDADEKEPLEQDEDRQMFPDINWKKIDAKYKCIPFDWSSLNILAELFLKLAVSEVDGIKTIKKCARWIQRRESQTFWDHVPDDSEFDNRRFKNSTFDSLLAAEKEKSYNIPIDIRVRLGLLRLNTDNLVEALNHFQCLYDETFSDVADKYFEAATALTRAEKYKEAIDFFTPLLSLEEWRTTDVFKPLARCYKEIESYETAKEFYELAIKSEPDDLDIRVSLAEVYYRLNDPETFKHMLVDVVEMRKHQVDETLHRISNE

binding result [1]: binds
binding result [2]: binds
binding result [3]: binds
B1: Brf1–TBP fusion protein Brf1 (1–382)-TBP (61–240)-Brf1 (439–596) (other, UniProt P29056 1-382, looked up)
chain: MPVCKNCHGTEFERDLSNANNDLVCKACGVVSEDNPIVSEVTFGETSAGAAVVQGSFIGAGQSHAAFGGSSALESREATLNNARRKLRAVSYALHIPEYITDAAFQWYKLALANNFVQGRRSQNVIASCLYVACRKEKTHHMLIDFSSRLQVSVYSIGATFLKMVKKLHITELPLADPSLFIQHFAEKLDLADKKIKVVKDAVKLAQRMSKDWMFEGRRPAGIAGACILLACRMNNLRRTHTEIVAVSHVAEETLQQRLNEFKNTKAAKLSVQKFRENDVEDGEARPPSFVKNRKKERKIKDSLDKEEMFQTSEEALNKNPILTQVLGEQELSSKEVLFYLKQFSERRARVVERIKATNGIDGENIYHEGSENETRKRKLSESGIVPTLQNIVATVTLGCRLDLKTVALHARNAEYNPKRFAAVIMRIREPKTTALIFASGKMVVTGAKSEDDSKLASRKYARIIQKIGFAAKFTDFKIQNIVGSCDVKFPIRLEGLAFSHGTFSSYEPELFPGLIYRMVKPKIVLLIFVSGKIVLTGAKQREEIYQAFEAIYPVLSEFRKMPRNLHLLPTTDTYLSKVSDDPDNLEDVDDEELNAHLLNEEASKLKERIWIGLNADFLLEQESKRLKQEADIATGNTSVKKKRTRRRNNTRSDEPTKTVDAAAAIGLMSDLQDKSGLHAALKAAEESGDFTTADSVKNMLQKASFSKKINYDAIDGLFR
notes: Brf1, subunit of TFIIIB, residues 1-382; TBP, subunit of TFIIIB, residues 61-240; Brf1, subunit of TFIIIB, residues 439-596; source: E. coli BL21 Star (DE3) pRARE, purified (Ni-NTA, HiTrap SP); not shown: His6, C-terminal, kept
